As a reminder, the stoichiometry N is the number of molecules, sites or subunits per partner or assembly.

Consider 2 substances from article PMC4196948.

The target in experiment [1] is wild type tcSOD (hyperthermostable Fe-superoxide dismutase from Tengchong hot springs) (not stated (metagenomic library of hot springs in Tengchong, China)). Nature of the experiment: native gel or EMSA; 10% native-PAGE (also 5-15% gradient), 20 mM PBS pH 7.4, 0.1-1.0 mg/ml (mutants 1 mg/ml), bands quantified by GIS software; step: tetramers to high-order oligomers; fractions almost unchanged with 0-5 M NaCl, pH 3-11 or 80°C for 60 min. In general terms: In EMSA bound probe runs differently from free probe, usually more slowly.

For experiment [2] the target is unchanged. Description: native gel or EMSA; tetramers and high-order oligomers separated by ion exchange (Resource Q), concentrated to 0.3 mg/ml, heated at 80°C or 95°C, then 10% native-PAGE; step: tetramers to octamers.
The target is the same in experiment [3]. Description: native gel or EMSA; 10% native-PAGE (also 5-15% gradient native-PAGE), 20 mM PBS pH 7.4, 0.1-1.0 mg/ml (mutants 1 mg/ml); the predominant oligomer (quaternary structure).
Experiment [4] has the same target. Description: cross-linking; glutaraldehyde, 20 mM sodium phosphate pH 7.4, after heating at 25°C or 80°C for 50 min, cross-linked 1 or 5 min; read by 12.5% SDS-PAGE.
For experiment [5] the target is unchanged. Description: SEC; Superdex 200HR 10/30, 20 mM sodium phosphate pH 7.4, 25°C, 0.5 ml/min; protein 0.1 to 1.0 mg/ml, not cross-linked. A general note: In gel filtration, larger molecules generally elute earlier.
Experiment [6] has the same target. Nature of the experiment: cross-linking; 0.5 mM DSP for 10 min after 50 min at the given temperature, without DTT; read by SDS-PAGE and native-PAGE.
For experiment [7], the target named is tcSOD truncation mutant M202 (residues 1-201) (not stated (metagenomic library of hot springs in Tengchong, China)). Description: cross-linking; glutaraldehyde, 20 mM sodium phosphate pH 7.4, after heating at 25°C or 80°C for 50 min, cross-linked 1 or 5 min; read by 12.5% SDS-PAGE.

Values joined by “and” are separate entries in the source; they are usually repeats but may differ in a detail not shown here. Equal entries are not always repeated.

For “wild type tcSOD (hyperthermostable Fe-superoxide dismutase from Tengchong hot springs) (enzyme)”, the fraction of high-order oligomers (at 0.1 mg/ml) in experiment [1] was 1.5%. The substance further returned a fraction of high-order oligomers (at 1.0 mg/ml) in experiment [1] of 5%. In addition, the stoichiometry N in experiment [1] is > 8; in experiment [2] it was 8; in experiment [3] it was 4; in experiment [4] it was 4 and 2; in experiment [5] it was 4; in experiment [6] it was 2.

“tcSOD truncation mutant M202 (residues 1-201) (domain or fragment)”: the stoichiometry N in experiment [7] was 4 and 2.
